Measurements published in article PMC9740503, “[^68Ga]Ga-DATA^5m-LM4, a PET Radiotracer in the Diagnosis of SST2R-Positive Tumors: Preclinical and First Clinical Results” (International Journal of Molecular Sciences, 2022).
Like-named read-outs stand apart in the source and are kept apart here. Positions of bridges follow the written chain, without caps; N, C: chain ends. Non-standard residues stand in square brackets, D forms with d. Residues, ends and D or L forms follow the SMILES beside them. *: point of attachment. DOTA = O=C(O)CN1CCN(CC(=O)O)CCN(CC(=O)*)CCN(CC(=O)O)CC1; X1 = CN(CC(=O)O)C1(CCCCC(=O)*)CN(CC(=O)O)CCN(CC(=O)O)C1; dPhe(4-NHCONH2) = NC(=O)Nc1ccc(C[C@@H](N)C(=O)O)cc1; Phe(4-Cl) = N[C@@H](Cc1ccc(Cl)cc1)C(=O)O; 4Pal = N[C@@H](Cc1ccncc1)C(=O)O

Tests used:
human SST2R = biological target: T1, human SST2R (Homo sapiens, UniProt P30874); assay: Competition binding against [125I-Tyr25]LTT-SS28 in HEK293-SST2R cell membranes; settings: HEK293-SST2R cell membrane homogenates; 1 h at 22 °C; 50 mM HEPES pH 7.4 binding buffer; mean ± sd, n = 3 independent experiments in triplicate; read-out: IC50, displacement of [125I-Tyr25]LTT-SS28 from SST2R binding sites
T1 construct: expressed in transfected cells
T1 sequence (P30874 whole entry): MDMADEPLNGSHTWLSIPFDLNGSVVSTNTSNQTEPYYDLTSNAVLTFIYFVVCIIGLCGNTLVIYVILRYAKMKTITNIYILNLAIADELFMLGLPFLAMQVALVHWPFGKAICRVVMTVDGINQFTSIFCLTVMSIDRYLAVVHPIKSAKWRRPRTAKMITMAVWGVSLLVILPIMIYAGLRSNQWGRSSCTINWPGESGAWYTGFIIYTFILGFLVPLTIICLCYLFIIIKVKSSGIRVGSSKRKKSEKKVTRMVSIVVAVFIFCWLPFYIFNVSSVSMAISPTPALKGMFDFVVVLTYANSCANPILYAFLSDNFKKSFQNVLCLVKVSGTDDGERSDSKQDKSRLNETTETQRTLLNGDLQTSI
Experimental: The binding affinities of DATA^5m-LM4 and [^natGa]Ga-DATA^5m-LM4 for the human SST2R were determined via competition binding assays against [^125I-Tyr^25]LTT-SS28 in freshly harvested HEK293-SST2R cell membranes. As depicted in Figure 2, DATA^5m-LM4 as well as its [^natGa]Ga-tagged version displaced [^125I-Tyr^25]LTT-SS28 from SST2R-binding sites in the membrane homogenates in a monophasic and dose-dependent manner.
Competition binding assays for DATA^5m-LM4 and [^natGa]Ga-DATA^5m-LM4 were performed in freshly harvested HEK293-SST2R cell membranes against [^125I-Tyr^25]LTT-SS28 [30, 33]. […] Filters were collected and their activity measured in a γ-counter (automated multi-sample well-type instrument with a NaI(Tl) 3″ crystal, Canberra Packard Cobra^TM Quantum U5003/1, Auto-Gamma® counting system). The half-maximal inhibitory concentration (IC50) values were calculated by nonlinear regression for a one-site model applying the PRISM^TM 6.0 GraphPad software (San Diego, CA, USA) and represent mean IC50 ± sd values from at least three independent experiments were performed in triplicate.

[1] = Biodistribution in SCID mice bearing twin HEK293-SST2R and wtHEK293 tumors; format: in vivo; settings: male, mouse, iv, 10 pmol, total radioactivity
Experimental: Inocula containing a suspension of freshly-harvested HEK293-SST2R cells (150 μL, 1.2 × 10^7cells in normal saline) and wtHEK293 cells (150 μL, 0.6 × 10^7 cells in normal saline) were subcutaneously (sc) injected in the right and left flanks of male SCID mice (21.5–25.0 g body weight, six weeks of age on arrival day; NCSR “Demokritos” Animal House, Athens, Greece). Mice were kept under aseptic conditions for about 2 weeks until well-palpable tumors (300–600 mg) were grown at the inoculation sites. […] Samples of blood and tissues of interest were collected along with implanted tumors, weighted and counted in the gamma counter. Biodistribution results were calculated as percent of the injected activity per gram tissue (%IA/g) with the aid of appropriate standards of the administered dose and the Microsoft Excel program. Results are presented as mean %IA/g values ± sd, n = 4 per time point, as determined by the PRISM^TM 6.0 GraphPad software (San Diego, CA, USA). […]

HEK293-SST2R cells = assay: Radioligand uptake/internalization in HEK293-SST2R cells; format: cell-based, human; settings: 1 h at 37 °C, 0.5 pmol total peptide, specific, % of total added activity, mean ± sd, 3 independent experiments in triplicate
Experimental: This distinct cell distribution pattern between [^67Ga]Ga-DATA^5m-LM4 and [^67Ga]Ga-DOTA-TOC is consistent with an SST2R antagonist and agonist behavior, respectively. […] Cells were seeded in poly-lysine coated six-well plates (1 × 10^6/well) and grew to confluent monolayers overnight. At the day of the experiment, plates were placed on ice and rinsed twice with chilled internalization medium (DMEM Glutamax-I supplemented by 1% (v/v) FBS). […] In the upper three wells internalization medium was added (150 μL, total) and in the lower three a solution of TATE to a final concentration of 1 μM (150 μL, non-specific). After 60 min incubation at 37 °C, the medium was removed and cells were washed with ice-cold 0.5% BSA-PBS. Cells were incubated (2 × 5 min) at ambient temperature in acid wash buffer (50 mM glycine in 0.1 M NaCl, pH 2.8) and supernatants were collected (membrane-bound fraction). After rinsing with 0.5% BSA-PBS, the cells were lysed by treatment with 1 N NaOH; the lysates were collected (internalized fraction). Samples were measured in the γ-counter and cell-associated/internalized radioactivity vs. total added activity per well was calculated. Specific values were obtained by subtracting values in the presence of excess TATE (lower well triplicates) from those without the addition of blocker (upper well triplicates). […]

SST2R = settings: against the same radioligand; read-out: IC50, SST2R autoradiography; cited from earlier work
Description: On the other hand, by changing the metal to Lu the IC50 determined for [^natL ...

C[C@@H](O)[C@@H]1NC(=O)[C@H](CCCCN)NC(=O)[C@@H](Cc2ccc(NC(N)=O)cc2)NC(=O)[C@H](Cc2ccncc2)NC(=O)[C@H](NC(=O)[C@H](Cc2ccc(Cl)cc2)NC(=O)CCCCC2(N(C)CC(=O)O)CN(CC(=O)O)CCN(CC(=O)O)C2)CSSC[C@@H](C(=O)N[C@H](Cc2ccc(O)cc2)C(N)=O)NC1=O [DATA^5m-LM4] (X1-[Phe(4-Cl)][dC][4Pal][dPhe(4-NHCONH2)]KTC[dY]-NH2; disulfide 2-7)
IC50 (human SST2R): 1.24 ± 0.2 nM

C[C@@H](O)[C@@H]1NC(=O)[C@H](CCCCN)NC(=O)[C@@H](Cc2ccc(NC(N)=O)cc2)NC(=O)[C@H](Cc2ccc(O)cc2)NC(=O)[C@H](NC(=O)[C@H](Cc2ccc(Cl)cc2)NC(=O)CN2CCN(CC(=O)O)CCN(CC(=O)O)CCN(CC(=O)O)CC2)CSSC[C@@H](C(=O)N[C@H](Cc2ccc(O)cc2)C(N)=O)NC1=O [[^67Ga]Ga-DOTA-LM3, metal not drawn] ({DOTA}-[Phe(4-Cl)][dC]Y[dPhe(4-NHCONH2)]KTC[dY]-NH2; disulfide 2-7)
tissue uptake at 1 h ([1]; HEK293-SST2R tumor (Tu+), 1 h pi, iv 10 pmol total peptide, mean ± sd, n = 4, read-out: Tu+ (HEK293-SST2R tumor) uptake): 25.3 ± 6.23 %ID/g
tissue uptake at 4 h ([1]; HEK293-SST2R tumor (Tu+), 4 h pi, iv 10 pmol total peptide, mean ± sd, n = 4, read-out: Tu+ (HEK293-SST2R tumor) uptake): 16.8 ± 1.22 %ID/g
tissue uptake at 1 h ([1]; in vivo, Blood uptake): 1.18 ± 0.03 %ID/g
tissue uptake at 4 h ([1]; in vivo, Blood uptake): 1.73 ± 0.47 %ID/g
tissue uptake at 1 h ([1]; in vivo, Femur uptake): 1.39 ± 0.39 %ID/g
tissue uptake at 4 h ([1]; in vivo, Femur uptake): 0.67 ± 0.14 %ID/g
tissue uptake at 1 h ([1]; in vivo, Heart uptake): 1.54 ± 0.78 %ID/g
tissue uptake at 4 h ([1]; in vivo, Heart uptake): 0.66 ± 0.14 %ID/g
tissue uptake at 1 h ([1]; in vivo, Intestines uptake): 1.26 ± 0.52 %ID/g
tissue uptake at 4 h ([1]; in vivo, Intestines uptake): 1.41 ± 0.37 %ID/g
tissue uptake at 1 h ([1]; in vivo, Kidneys uptake): 36 ± 5.96 %ID/g
tissue uptake at 4 h ([1]; in vivo, Kidneys uptake): 37.6 ± 3.44 %ID/g
tissue uptake at 1 h ([1]; in vivo, Liver uptake): 1.82 ± 0.63 %ID/g
tissue uptake at 4 h ([1]; in vivo, Liver uptake): 1.43 ± 0.19 %ID/g
tissue uptake at 1 h ([1]; in vivo, Lungs uptake): 3 ± 0.77 %ID/g
tissue uptake at 4 h ([1]; in vivo, Lungs uptake): 1.21 ± 0.24 %ID/g
tissue uptake at 1 h ([1]; in vivo, Muscle uptake): 0.56 ± 0.22 %ID/g
tissue uptake at 4 h ([1]; in vivo, Muscle uptake): 0.25 ± 0.06 %ID/g
tissue uptake at 1 h ([1]; in vivo, Pancreas uptake): 1.49 ± 0.71 %ID/g
tissue uptake at 4 h ([1]; in vivo, Pancreas uptake): 1.24 ± 0.44 %ID/g
tissue uptake at 1 h ([1]; in vivo, Spleen uptake): 1.73 ± 0.85 %ID/g
tissue uptake at 4 h ([1]; in vivo, Spleen uptake): 1.06 ± 0.25 %ID/g
tissue uptake at 1 h ([1]; in vivo, Stomach uptake): 0.8 ± 0.17 %ID/g
tissue uptake at 4 h ([1]; in vivo, Stomach uptake): 0.5 ± 0.08 %ID/g
tissue uptake at 1 h ([1]; wtHEK293 tumor (Tu-), 1 h pi, iv 10 pmol total peptide, mean ± sd, n = 4, read-out: Tu- (wtHEK293 tumor) uptake): 1.45 ± 0.27 %ID/g
tissue uptake at 4 h ([1]; wtHEK293 tumor (Tu-), 4 h pi, iv 10 pmol total peptide, mean ± sd, n = 4, read-out: Tu- (wtHEK293 tumor) uptake): 1.13 ± 0.31 %ID/g
total cell uptake (membrane bound + internalized) (HEK293-SST2R cells): 2.51 ± 0.36%

DOTA-DPhe-c[DCys-Tyr-DAph(Cbm)-Lys-Thr-Cys]-DTyr-NH2 (disulfide) [DOTA-LM3, DOTA-derivatized SST2R antagonist LM3]
IC50 (SST2R): 1.4 ± 0.5 nM

[^natGa]Ga-DATA^5m-LM4: DATA5m-LM4 tagged with natural gallium (DATA5m-[Phe(4-Cl)][dC][4Pal][dPhe(4-NHCONH2)]KTC[dY]-NH2; disulfide 2-7; also: complexed with natural gallium)
IC50 (human SST2R): 1.61 ± 0.32 nM
